Assay results published in patent US20060084791A1.
Several values for one entry are separate records, joined by “and”; a condition that tells them apart may be missing. Equal values may be shown once.

Assays:
Assay in all cases: cell-based or functional assay
[1] = target: human polytropic/xenotropic receptor encoded by the human RMC1 locus (human) (UniProt Q9UBH6)
[2] = target: polytropic/xenotropic receptor encoded by the Rmc1 locus of the NIH Swiss inbred NFS/N mouse (mouse (NIH Swiss; NIH 3T3 cells)) (UniProt Q9Z0U0)
Sequence of polytropic/xenotropic receptor encoded by the Rmc1 locus of the NIH Swiss inbred NFS/N mouse (mouse (NIH Swiss; NIH 3T3 cells)) (Q9Z0U0 whole entry): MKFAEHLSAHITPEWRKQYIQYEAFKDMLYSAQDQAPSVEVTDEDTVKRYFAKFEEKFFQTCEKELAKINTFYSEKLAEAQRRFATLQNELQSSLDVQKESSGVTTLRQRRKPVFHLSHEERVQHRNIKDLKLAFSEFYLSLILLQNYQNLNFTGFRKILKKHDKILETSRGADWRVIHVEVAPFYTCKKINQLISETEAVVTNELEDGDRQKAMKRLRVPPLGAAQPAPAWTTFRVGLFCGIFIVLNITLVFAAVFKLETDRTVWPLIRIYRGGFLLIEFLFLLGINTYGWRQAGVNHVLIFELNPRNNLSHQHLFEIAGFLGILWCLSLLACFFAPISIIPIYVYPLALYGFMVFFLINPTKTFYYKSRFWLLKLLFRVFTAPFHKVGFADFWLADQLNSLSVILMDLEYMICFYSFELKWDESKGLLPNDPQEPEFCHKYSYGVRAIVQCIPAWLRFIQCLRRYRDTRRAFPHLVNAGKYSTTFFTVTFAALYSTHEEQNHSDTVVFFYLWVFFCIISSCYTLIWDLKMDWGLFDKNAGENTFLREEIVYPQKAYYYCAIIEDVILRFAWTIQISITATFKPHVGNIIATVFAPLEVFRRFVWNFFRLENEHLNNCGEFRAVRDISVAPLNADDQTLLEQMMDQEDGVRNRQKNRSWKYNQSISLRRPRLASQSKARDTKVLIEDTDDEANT

[3] = target: ecotropic receptor mCAT-1 (UniProt Q09143)
Sequence of ecotropic receptor mCAT-1 (Q09143 whole entry): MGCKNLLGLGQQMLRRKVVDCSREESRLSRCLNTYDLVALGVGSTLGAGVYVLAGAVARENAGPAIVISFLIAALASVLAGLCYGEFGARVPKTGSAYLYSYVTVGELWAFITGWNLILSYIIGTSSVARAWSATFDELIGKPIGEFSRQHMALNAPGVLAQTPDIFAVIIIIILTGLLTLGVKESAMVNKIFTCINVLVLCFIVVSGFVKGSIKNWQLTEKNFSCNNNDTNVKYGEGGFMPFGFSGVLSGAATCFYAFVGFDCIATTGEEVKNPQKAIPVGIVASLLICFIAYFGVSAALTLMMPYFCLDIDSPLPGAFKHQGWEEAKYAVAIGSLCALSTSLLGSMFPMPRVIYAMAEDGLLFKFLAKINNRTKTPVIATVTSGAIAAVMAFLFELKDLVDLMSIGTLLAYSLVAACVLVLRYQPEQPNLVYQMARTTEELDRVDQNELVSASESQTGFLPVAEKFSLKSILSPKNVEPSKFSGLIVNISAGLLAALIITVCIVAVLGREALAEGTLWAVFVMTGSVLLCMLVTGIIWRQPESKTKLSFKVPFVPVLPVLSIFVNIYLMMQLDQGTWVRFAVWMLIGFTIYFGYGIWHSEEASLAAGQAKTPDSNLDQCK

Sequence of human polytropic/xenotropic receptor encoded by the human RMC1 locus (human) (Q9UBH6 whole entry): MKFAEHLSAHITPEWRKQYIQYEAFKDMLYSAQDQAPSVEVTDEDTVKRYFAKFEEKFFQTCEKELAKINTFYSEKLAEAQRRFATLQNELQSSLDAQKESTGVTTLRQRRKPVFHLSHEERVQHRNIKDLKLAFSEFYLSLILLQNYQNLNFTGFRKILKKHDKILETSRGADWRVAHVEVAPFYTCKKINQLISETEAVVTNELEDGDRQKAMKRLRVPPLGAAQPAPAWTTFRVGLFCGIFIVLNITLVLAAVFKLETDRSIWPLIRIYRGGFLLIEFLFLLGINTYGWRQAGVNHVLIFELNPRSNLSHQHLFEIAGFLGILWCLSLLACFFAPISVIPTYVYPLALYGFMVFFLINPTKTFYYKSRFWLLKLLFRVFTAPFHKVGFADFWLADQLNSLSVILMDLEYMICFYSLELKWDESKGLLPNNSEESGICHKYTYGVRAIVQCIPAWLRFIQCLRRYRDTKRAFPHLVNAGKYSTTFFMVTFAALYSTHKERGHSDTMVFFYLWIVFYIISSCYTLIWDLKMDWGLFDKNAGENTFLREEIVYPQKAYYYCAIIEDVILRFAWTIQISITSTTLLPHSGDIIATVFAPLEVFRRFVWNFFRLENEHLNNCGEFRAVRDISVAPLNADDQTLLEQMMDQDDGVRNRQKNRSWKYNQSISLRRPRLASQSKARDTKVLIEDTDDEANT

## SL3-2 envelope mutant LV (L at 212, V at 213) (from UniProt P03388 33-640)
[1]
  titer on TE 671 (human) cells: 16000 c.f.u./ml
[2]
  titer on NIH 3T3 (murine) cells: 3.6e+06 c.f.u./ml

## SL3-2 envelope mutant MA (M at 212, A at 213) (from UniProt P03388 33-640)
[1]
  titer on TE 671 (human) cells: 250000 c.f.u./ml
[2]
  titer on NIH 3T3 (murine) cells: 9.6e+06 c.f.u./ml

## SL3-2 envelope mutant LI (L at 212, I at 213) (from UniProt P03388 33-640)
[1]
  Titer on 293 cells: 12000 c.f.u./ml
  Titer on TE 671 cells transfected with MCF 247 (receptor blocked by MCF 247 envelope): 68 c.f.u./ml
  fold decrease of titer on TE 671 cells expressing MCF 247 envelope: 100 fold
  titer on TE 671 (human) cells: 1200 c.f.u./ml
[2]
  titer on NIH 3T3 (murine) cells: 2.4e+06 c.f.u./ml

## SL3-2 envelope mutant LA (L at 212, A at 213) (from UniProt P03388 33-640)
[1]
  titer on TE 671 (human) cells: 5200 c.f.u./ml
[2]
  titer on NIH 3T3 (murine) cells: 1.1e+07 c.f.u./ml

## SL3-2 envelope mutant MV (M at 212, V at 213) (from UniProt P03388 33-640)
[1]
  Titer on 293 cells: 240000 c.f.u./ml
  Titer on Human HeLa cells: 100 c.f.u./ml
  Titer on TE 671 cells transfected with MCF 247 (receptor blocked by MCF 247 envelope): 16000 c.f.u./ml
  fold decrease of titer on TE 671 cells expressing MCF 247 envelope: 100 fold
  fold rise of titer on human cells against the GI mutant: > 10 fold
  titer on TE 671 (human) cells: 7.2e+06 c.f.u./ml
[2]
  titer on NIH 3T3 (murine) cells: 9.6e+06 c.f.u./ml

## SL3-2 envelope mutant GA (G at 212, A at 213) (from UniProt P03388 33-640)
[1]
  titer on TE 671 (human) cells: 2800 c.f.u./ml
[2]
  titer on NIH 3T3 (murine) cells: 5.6e+06 c.f.u./ml

## S/M VRA (SL3-2 envelope with the VRA segment of MCF 247)
[1]
  titer on HeLa cells: 0 cfu/mL
  titer on TE 671 cells: 2.5 cfu/mL
[2]
  titer on NIH 3T3/MCF 247 cells (polytropic receptor blocked): 2.5 cfu/mL
  titer on NIH 3T3 cells: 225000 cfu/mL
  titer on Psi-2 cells (ecotropic receptor blocked): 400000 cfu/mL

## SL3-2 envelope mutant MI (M at 212, I at 213) (from UniProt P03388 33-640)
[1]
  titer on TE 671 (human) cells: 28000 c.f.u./ml
[2]
  titer on NIH 3T3 (murine) cells: 240000 c.f.u./ml

## S/M Leader (SL3-2 envelope with the signal peptide of MCF 247)
[1]
  titer on HeLa cells: 0 cfu/mL
  titer on TE 671 cells: 5 cfu/mL
[2]
  titer on NIH 3T3/MCF 247 cells (polytropic receptor blocked): 12.5 cfu/mL
  titer on NIH 3T3 cells: 200000 cfu/mL
  titer on Psi-2 cells (ecotropic receptor blocked): 100000 cfu/mL

## SL3-2 envelope mutant RI (R at 212, I at 213) (from UniProt P03388 33-640)
[1]
  Titer (cfu/mL) on TE 671 cells: 22.5 cfu/mL
  titer on TE 671 (human) cells: 24 c.f.u./ml
[2]
  Titer (cfu/mL) on NIH 3T3 cells: 3.25e+06 cfu/mL
  titer on NIH 3T3 (murine) cells: 6.4e+06 c.f.u./ml

## SL3-2 envelope mutant GK (G at 212, K at 213) (from UniProt P03388 33-640)
[1]
  titer on TE 671 (human) cells: 5600 c.f.u./ml
[2]
  titer on NIH 3T3 (murine) cells: 5.2e+06 c.f.u./ml

## SL3-2 envelope mutant GV (G at 212, V at 213) (from UniProt P03388 33-640)
[1]
  titer on TE 671 (human) cells: 320000 c.f.u./ml
[2]
  titer on NIH 3T3 (murine) cells: 3.6e+06 c.f.u./ml

## S/M VRB (SL3-2 envelope with the VRB segment of MCF 247)
[1]
  titer on HeLa cells: 0 cfu/mL
  titer on TE 671 cells: 5 cfu/mL
[2]
  titer on NIH 3T3/MCF 247 cells (polytropic receptor blocked): 2.5 cfu/mL
  titer on NIH 3T3 cells: 3e+06 cfu/mL
  titer on Psi-2 cells (ecotropic receptor blocked): 500000 cfu/mL

## Akv MLV envelope protein (ecotropic envelope) (from UniProt P03386 32-669)
[3]
  fold lowering of titer on PSI-2 cells against NIH 3T3 cells: 10000 fold
  titer of mini-virus on HeLa mCAT cells: 50000 cfu/mL and 30000 cfu/mL
  titer of mini-virus on NIH3T3 cells: 1.6e+06 cfu/mL and 800000 cfu/mL
  titer of mini-virus on PSI-2 cells (ecotropic receptor blocked by ecotropic envelope): 170 cfu/mL and 120 cfu/mL

## SL3-2 envelope mutant GT (G at 212, T at 213) (from UniProt P03388 33-640)
[1]
  Titer (cfu/mL) on TE 671 cells: 1500 cfu/mL
  titer on TE 671 (human) cells: 520 c.f.u./ml
[2]
  Titer (cfu/mL) on NIH 3T3 cells: 2e+06 cfu/mL
  titer on NIH 3T3 (murine) cells: 8.4e+06 c.f.u./ml

## MCF 247 envelope protein (polytropic MLV MCF-247)
[1]
  Titer on 293 cells: 2400 c.f.u./ml
  Titer on Human HeLa cells: 2 c.f.u./ml
  Titer on TE 671 cells transfected with MCF 247 (receptor blocked by MCF 247 envelope): 16 c.f.u./ml
  titer on TE 671 (human) cells: 150 c.f.u./ml
[2]
  titer on NIH 3T3 (murine) cells: 4.8e+06 c.f.u./ml

## SL3-2 envelope polypeptide (wild type envelope protein of Murine Leukaemia Virus SL3-2) (from UniProt P03388 33-640)
[1]
  Titer (cfu/mL) on TE 671 cells: 4.75 cfu/mL
  Titer on 293 cells: < 2 c.f.u./ml
  Titer on Human HeLa cells: < 2 c.f.u./ml
  titer on HeLa cells: 0 cfu/mL
  titer on TE 671 (human) cells: < 4 c.f.u./ml
  titer on TE 671 cells: < 2 c.f.u./ml

## SL3-2 envelope mutant RA (R at 212, A at 213) (from UniProt P03388 33-640)
[1]
  titer on TE 671 (human) cells: 4 c.f.u./ml
[2]
  titer on NIH 3T3 (murine) cells: 1e+07 c.f.u./ml

## S/M VR3 (SL3-2 envelope with the VR3 region of MCF 247) (from UniProt P03388 33-640)
[1]
  titer on HeLa cells: 250 cfu/mL
  titer on TE 671 cells: 22500 cfu/mL
[2]
  titer on NIH 3T3/MCF 247 cells (polytropic receptor blocked): 2.5 cfu/mL
  titer on NIH 3T3 cells: 500000 cfu/mL
  titer on Psi-2 cells (ecotropic receptor blocked): 300000 cfu/mL

## SL3-2 envelope mutant GI (G at 212, I at 213) (from UniProt P03388 33-640)
[1]
  Titer (cfu/mL) on TE 671 cells: 450000 cfu/mL
  Titer on 293 cells: 200000 c.f.u./ml
  Titer on Human HeLa cells: 130 c.f.u./ml
  Titer on TE 671 cells transfected with MCF 247 (receptor blocked by MCF 247 envelope): 6000 c.f.u./ml
  fold decrease of titer on TE 671 cells expressing MCF 247 envelope: 100 fold
  fold rise of titer on human cells against wild type SL3-2: 100000 fold
  titer on TE 671 (human) cells: 440000 c.f.u./ml
[2]
  Titer (cfu/mL) on NIH 3T3 cells: 2e+06 cfu/mL
  titer on NIH 3T3 (murine) cells: 7.6e+06 c.f.u./ml

## SL3-2 envelope mutant CR (C at 212, R at 213) (from UniProt P03388 33-640)
[1]
  titer on TE 671 (human) cells: 12 c.f.u./ml
[2]
  titer on NIH 3T3 (murine) cells: 2.4e+06 c.f.u./ml
